The target in test [1] is T1, full-length human CD22 fused with flag and Myc tags at the C-terminus, on HEK293 or K562 cells (human, UniProt P20273 20-847).
T1 sequence (looked up): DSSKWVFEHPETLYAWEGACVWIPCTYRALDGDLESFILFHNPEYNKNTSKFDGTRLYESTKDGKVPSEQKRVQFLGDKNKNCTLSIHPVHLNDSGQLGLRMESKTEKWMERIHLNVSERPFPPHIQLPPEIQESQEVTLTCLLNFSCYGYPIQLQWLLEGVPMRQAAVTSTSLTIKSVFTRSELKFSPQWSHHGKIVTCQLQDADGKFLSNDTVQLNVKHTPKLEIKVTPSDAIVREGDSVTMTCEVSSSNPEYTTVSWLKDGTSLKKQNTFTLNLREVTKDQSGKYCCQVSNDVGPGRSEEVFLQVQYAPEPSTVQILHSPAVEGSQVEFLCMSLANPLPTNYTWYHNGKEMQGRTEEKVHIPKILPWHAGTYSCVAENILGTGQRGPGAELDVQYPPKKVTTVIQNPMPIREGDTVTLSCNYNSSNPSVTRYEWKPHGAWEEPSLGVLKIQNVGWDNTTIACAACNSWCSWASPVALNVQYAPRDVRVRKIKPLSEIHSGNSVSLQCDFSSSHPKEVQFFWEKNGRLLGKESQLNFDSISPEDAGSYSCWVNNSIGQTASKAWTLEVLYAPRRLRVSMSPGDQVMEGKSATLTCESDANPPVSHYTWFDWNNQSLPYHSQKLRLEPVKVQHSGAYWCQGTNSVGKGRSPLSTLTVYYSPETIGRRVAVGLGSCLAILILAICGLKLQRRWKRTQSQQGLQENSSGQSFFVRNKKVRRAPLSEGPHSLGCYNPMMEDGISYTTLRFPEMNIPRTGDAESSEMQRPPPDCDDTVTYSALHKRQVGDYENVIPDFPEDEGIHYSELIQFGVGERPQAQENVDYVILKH
Briefly: cell-based or functional assay.

Test [2] has as its target T1, full-length human CD22 fused with flag …. Briefly: cell-based or functional assay. This is another data set of the same source.
The target is the same in test [3]. Nature of the test: ELISA, IgG format; antigen format not described. For orientation: In an ELISA, binding on a coated surface is turned into a signal by an enzyme label.
Test [4] concerns the target T2, CD123 on the surface of CHO-K1 cells (UniProt P26951 19-378).
T2 construct: whole, on cells; Negative control cells that express CD123 but not CD22; also called CHOK1-CD123; cell surface CD123
Nature of the test: FACS on CHO-K1 cells expressing CD123, anti-hFc Alexa 488.

In test [5] the target is T1, full-length human CD22 fused with flag …. Briefly: FACS on CD22-expressing cells (HEK293-CD22 by the table's head), anti-hFc Alexa 488.

T2 sequence (P26951 19-378 limits assumed): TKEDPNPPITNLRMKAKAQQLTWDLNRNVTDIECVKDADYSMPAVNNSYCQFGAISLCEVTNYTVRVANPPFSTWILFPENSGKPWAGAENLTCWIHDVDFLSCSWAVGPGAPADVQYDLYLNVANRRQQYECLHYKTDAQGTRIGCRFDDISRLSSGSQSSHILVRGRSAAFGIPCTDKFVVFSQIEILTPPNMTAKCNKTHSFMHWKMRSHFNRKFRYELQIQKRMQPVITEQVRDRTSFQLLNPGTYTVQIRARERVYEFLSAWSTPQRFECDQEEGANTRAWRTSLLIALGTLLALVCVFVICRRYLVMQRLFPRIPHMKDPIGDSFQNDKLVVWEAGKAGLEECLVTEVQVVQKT

B1: EP160-D02 (IgG) (antibody, V domains shown)
VH: QVQLVQSGAEVKKPGASVKVSCKASGYTFTSYGISWVRQAPGQGLEWMGWISAYNGNTNYAQKLQGRVTMTTDTSTSTAYMELRSLRSDDTAVYYCARDPLEPLESDYWGQGTLVTVSS
VL: EIVMTQSPATLSVSPGEGVTLSCRASQSVSSNLAWYQQRPGQAPRLLIYGASIKATDVPDRFSGGGSGTDFSLSITNLQSEDFAVYYCQQYHTWPPVTFGGGTKVEIK
notes: also called EP160-D2 (IgG)
As usually defined, the EC50 is the concentration giving half of the maximal effect. Read a low EC50 as greater potency. For B1, the “EC50 in ADCC assay (Promega ADCC Bioreporter, CD22/HEK293 target cells)” value in test [1] was 1950 pM. Besides, the “T½ (Hour) of internalization, CD22/HEK293 cells, pHrodo secondary” value in test [2] was 5.06 Hour. Also, the concentration giving a half-maximal response (EC50) in test [3] worked out at 39 pM; in test [5] it was 101 pM. Moreover, the binding result in test [4] is “no binding”.

The values are drawn from US20220298257A1 (ELPIS BIOPHARMACEUTICALS, published 2022).
